Experimental data reported in US20250262210A1 (TRUSTEES OF COLUMBIA UNIVERSITY IN THE CITY OF NEW YORK, published 2025).

Columns and labels:
Experiment in all cases: IP/MS, LZTR1 wild type-FLAG, U87
ABR = target: T1, ABR (human, UniProt Q12979 1-859, limits assumed)
T1 sequence (looked up): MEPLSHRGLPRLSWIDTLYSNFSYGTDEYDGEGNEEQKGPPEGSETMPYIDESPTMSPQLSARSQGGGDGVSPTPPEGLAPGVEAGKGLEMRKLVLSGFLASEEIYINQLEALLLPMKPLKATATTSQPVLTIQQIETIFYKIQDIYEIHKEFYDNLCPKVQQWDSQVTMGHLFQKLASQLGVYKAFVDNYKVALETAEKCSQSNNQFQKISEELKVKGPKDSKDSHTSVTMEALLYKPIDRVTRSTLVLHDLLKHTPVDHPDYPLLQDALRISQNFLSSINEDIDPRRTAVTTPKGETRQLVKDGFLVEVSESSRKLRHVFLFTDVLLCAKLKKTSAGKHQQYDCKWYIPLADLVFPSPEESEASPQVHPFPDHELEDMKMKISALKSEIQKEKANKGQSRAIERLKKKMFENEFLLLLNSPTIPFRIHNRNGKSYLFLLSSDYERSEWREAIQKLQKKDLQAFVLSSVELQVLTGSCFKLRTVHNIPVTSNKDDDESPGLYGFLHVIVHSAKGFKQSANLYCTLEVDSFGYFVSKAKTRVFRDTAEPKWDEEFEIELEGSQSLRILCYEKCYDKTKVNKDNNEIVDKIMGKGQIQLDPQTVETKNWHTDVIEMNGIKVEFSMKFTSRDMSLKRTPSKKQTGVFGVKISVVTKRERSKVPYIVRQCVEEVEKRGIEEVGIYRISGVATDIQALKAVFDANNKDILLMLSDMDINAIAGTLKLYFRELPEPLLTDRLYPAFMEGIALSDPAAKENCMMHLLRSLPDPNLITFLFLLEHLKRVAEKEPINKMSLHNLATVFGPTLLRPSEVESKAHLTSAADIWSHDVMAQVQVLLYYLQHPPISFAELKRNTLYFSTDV
How it was run: (§1)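 Gel slices were reduced with 5 mM DTT, alkylated with 11 mM IAA and digested overnight at 37° C. with trypsin. Peptides were analysed on an Orbitrap Fusion Tribrid by LC-MS/MS.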

AMBRA1 = target: T2, AMBRA1 (human, UniProt Q9C0C7 1-1298, limits assumed)
T2 sequence (looked up): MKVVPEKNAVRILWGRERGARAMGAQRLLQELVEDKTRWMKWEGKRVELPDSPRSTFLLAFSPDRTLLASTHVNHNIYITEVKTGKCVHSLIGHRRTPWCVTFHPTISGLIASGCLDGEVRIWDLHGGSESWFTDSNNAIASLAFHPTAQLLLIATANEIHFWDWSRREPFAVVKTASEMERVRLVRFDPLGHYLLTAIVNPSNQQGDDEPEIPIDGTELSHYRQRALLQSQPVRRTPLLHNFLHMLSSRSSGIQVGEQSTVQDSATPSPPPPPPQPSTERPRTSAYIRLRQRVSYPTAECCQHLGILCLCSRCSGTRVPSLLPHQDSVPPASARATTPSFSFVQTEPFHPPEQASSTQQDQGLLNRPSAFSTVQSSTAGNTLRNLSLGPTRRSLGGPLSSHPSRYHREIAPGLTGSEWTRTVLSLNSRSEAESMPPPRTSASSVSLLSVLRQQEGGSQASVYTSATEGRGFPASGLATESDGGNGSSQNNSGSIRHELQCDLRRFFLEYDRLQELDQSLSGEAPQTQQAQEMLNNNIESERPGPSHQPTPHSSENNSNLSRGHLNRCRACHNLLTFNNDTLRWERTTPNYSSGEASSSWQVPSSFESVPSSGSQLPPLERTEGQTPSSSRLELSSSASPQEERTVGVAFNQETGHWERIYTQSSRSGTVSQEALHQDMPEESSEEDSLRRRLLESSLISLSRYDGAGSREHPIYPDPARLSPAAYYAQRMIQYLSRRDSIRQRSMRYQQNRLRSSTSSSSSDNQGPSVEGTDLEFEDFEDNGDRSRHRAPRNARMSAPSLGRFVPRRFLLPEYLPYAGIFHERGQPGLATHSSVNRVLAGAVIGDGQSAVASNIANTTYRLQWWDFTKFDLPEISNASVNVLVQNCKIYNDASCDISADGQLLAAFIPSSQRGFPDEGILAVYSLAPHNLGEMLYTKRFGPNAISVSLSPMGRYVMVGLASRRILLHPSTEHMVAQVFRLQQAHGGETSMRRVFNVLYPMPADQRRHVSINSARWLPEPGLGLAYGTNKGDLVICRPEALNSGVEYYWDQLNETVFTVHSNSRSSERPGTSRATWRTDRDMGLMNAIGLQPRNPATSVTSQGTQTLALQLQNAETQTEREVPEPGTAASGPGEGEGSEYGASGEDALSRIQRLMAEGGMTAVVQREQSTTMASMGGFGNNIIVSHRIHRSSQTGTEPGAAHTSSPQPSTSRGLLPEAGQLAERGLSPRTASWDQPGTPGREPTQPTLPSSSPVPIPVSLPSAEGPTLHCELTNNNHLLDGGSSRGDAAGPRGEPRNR
How it was run: as §1

TTI1 = TTI1 (human, UniProt O43156 1-1089)
How it was run: as §1

Measured: binding result

TTI1, sequence (O43156 whole entry): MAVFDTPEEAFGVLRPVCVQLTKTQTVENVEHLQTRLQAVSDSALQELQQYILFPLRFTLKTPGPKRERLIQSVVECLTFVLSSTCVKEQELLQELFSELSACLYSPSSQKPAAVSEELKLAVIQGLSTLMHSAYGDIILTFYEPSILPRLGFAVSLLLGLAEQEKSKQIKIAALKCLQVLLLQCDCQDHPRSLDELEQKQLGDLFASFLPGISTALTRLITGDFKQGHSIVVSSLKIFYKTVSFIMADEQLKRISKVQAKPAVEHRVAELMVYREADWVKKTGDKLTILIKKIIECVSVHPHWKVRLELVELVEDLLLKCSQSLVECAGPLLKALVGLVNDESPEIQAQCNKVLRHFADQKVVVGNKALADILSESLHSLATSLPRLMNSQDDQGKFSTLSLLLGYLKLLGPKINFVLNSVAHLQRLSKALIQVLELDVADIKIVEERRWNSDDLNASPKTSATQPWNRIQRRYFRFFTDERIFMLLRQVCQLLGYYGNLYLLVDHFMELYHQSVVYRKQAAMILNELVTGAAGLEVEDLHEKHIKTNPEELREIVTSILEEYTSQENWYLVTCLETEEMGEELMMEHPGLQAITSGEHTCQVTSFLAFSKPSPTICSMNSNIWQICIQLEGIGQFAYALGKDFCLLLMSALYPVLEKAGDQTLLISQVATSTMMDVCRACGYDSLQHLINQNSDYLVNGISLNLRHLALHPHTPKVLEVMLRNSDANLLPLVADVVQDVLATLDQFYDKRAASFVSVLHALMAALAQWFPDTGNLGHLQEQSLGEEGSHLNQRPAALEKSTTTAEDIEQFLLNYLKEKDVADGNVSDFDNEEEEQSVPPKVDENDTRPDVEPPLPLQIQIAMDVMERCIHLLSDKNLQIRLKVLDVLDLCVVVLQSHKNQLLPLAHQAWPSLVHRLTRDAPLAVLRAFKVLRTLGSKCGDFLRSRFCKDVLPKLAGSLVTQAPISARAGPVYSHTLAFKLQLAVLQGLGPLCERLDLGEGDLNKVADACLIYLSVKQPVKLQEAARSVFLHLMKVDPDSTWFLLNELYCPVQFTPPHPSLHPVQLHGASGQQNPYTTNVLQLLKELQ

B1: LZTR1-FLAG (other, human, UniProt Q8N653 1-840, looked up)
chain: MAGPGSTGGQIGAAALAGGARSKVAPSVDFDHSCSDSVEYLTLNFGPFETVHRWRRLPPCDEFVGARRSKHTVVAYKDAIYVFGGDNGKTMLNDLLRFDVKDCSWCRAFTTGTPPAPRYHHSAVVYGSSMFVFGGYTGDIYSNSNLKNKNDLFEYKFATGQWTEWKIEGRLPVARSAHGATVYSDKLWIFAGYDGNARLNDMWTIGLQDRELTCWEEVAQSGEIPPSCCNFPVAVCRDKMFVFSGQSGAKITNNLFQFEFKDKTWTRIPTEHLLRGSPPPPQRRYGHTMVAFDRHLYVFGGAADNTLPNELHCYDVDFQTWEVVQPSSDSEVGGAEVPERACASEEVPTLTYEERVGFKKSRDVFGLDFGTTSAKQPTQPASELPSGRLFHAAAVISDAMYIFGGTVDNNIRSGEMYRFQFSCYPKCTLHEDYGRLWESRQFCDVEFVLGEKEECVQGHVAIVTARSRWLRRKITQARERLAQKLEQEAAPVPREAPGVAAGGARPPLLHVAIREAEARPFEVLMQFLYTDKIKYPRKGHVEDVLLIMDVYKLALSFQLCRLEQLCRQYIEASVDLQNVLVVCESAARLQLSQLKEHCLNFVVKESHFNQVIMMKEFERLSSPLIVEIVRRKQQPPPRTPLDQPVDIGTSLIQDMKAYLEGAGAEFCDITLLLDGHPRPAHKAILAARSSYFEAMFRSFMPEDGQVNISIGEMVPSRQAFESMLRYIYYGEVNMPPEDSLYLFAAPYYYGFYNNRLQAYCKQNLEMNVTVQNVLQILEAADKTQALDMKRHCLHIIVHQFTKVSKLPTLRSLSQQLLLDIIDSLASHISDKQCAELGADI
notes: Expressed in HEK 293T, HeLa or U87 cells; used as cell lysate; also called LZTR1 wild type-FLAG; LZTR1 WT; not shown: FLAG tag at the C-terminus
binds: ABR | AMBRA1 | TTI1
